# Measurements: patent publication US20100280227A1 (Genentech, published 2010)
# “And” between values parts separate entries of the source, which are not always exact repeats. Equal entries are not always repeated.
# Tests used:
# [1] = target: T1, human BR3 expressed on cells (human, UniProt Q96RJ3 1-184); test: BJAB cells, competition with biotin-BAFF
# T1 construct: whole, on cells; also called BR3 on BJAB cells; cell surface BR3
# Description: (§1) The diluted samples were added to the pelleted BJAB cells in 96 well plates as described above. After 45 min incubation on ice, the cells were washed twice with 200 μl cold assay buffer, and streptavidin-HRP (AMDEX, Amersham Biosciences, Piscataway, N.J.) diluted 1/5,000 in assay buffer was added (100 μl/well). The plates were incubated for a final 45 min on ice. After washing twice with cold assay buffer, color was developed using TMB, the reaction was stopped with H₃PO₄, and the plates were read as described above.
# [2] = target: T2, variant human BR3-Fc fusion; test: SPR, vBR3-Fc on chip;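 note: Anti-BR3 antibodies passed over chip-bound BR3-Fc in PBS with 0.05% polysorbate 20, on and off rates fitted together globally to a 1:1 binding model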
# T2 construct: produced in CHO cells; also called vBR3-Fc; vhBR3-Fc
# [3] = target: T2, variant human BR3-Fc fusion; test: competition ELISA on vhBR3-Fc against biotinylated 11G9
# [4] = target: human BR3 displayed on phage, mutated at A34 in the alanine scan (human, UniProt Q96RJ3 1-61, limits assumed); test: shotgun alanine scan of phage-displayed BR3; F against wild type;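 note: Phage-displayed BR3 shotgun alanine libraries, two selection rounds for anti-BR3 antibody binding, normalized to a display selection, F above 1 marks a harmful substitution, below 1 a beneficial one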
# Excerpt: (§2) At the sites of mutation, wild-type codons were replaced with the corresponding shotgun alanine codon (Weiss, supra). […] Library 1 encoded shotgun codons at positions 17, 18, 20-23, 25, 27, 28, 30, and 33, while library 2 encoded shotgun codons at positions 26, 29, 31, 34, and 36-42. Each library contained 2×10⁹ members, allowing for complete representation of the theoretical diversity (>10⁴-fold excess).
# (§3) The display selection was included in order to normalize the anti-BR3 antibody-binding selection for expression differences between library members. Phage eluted from each target were propagated in E. coli XL 1-blue; amplified phage were used for selection against the same target as in the previous round. After two rounds of selection, 48 individual clones from each library and selection were grown in a 96-well format in 400 L of 2YT medium supplemented with carbenicillin and KO7 helper phage.
# (§4) F-values were calculated as previously described (Weiss, supra; Gordon, supra). […] Deleterious mutations have ratios >1, while advantageous mutations have ratios <1; boldface indicates a >10-fold effect.
# [5] = target: human BR3 displayed on phage, mutated at A22 in the alanine scan (human, UniProt Q96RJ3 1-61, limits assumed); test: as above
# Excerpt: as §2, §3, §4
# [6] = target: T3, human BR3 displayed on phage, L38 alanine-scan mutant (human, UniProt Q96RJ3 1-61, limits assumed); test: as above
# T3 construct: One position of the shotgun alanine scan of BR3 on phage
# Excerpt: as §2, §3, §4
# [7] = target: T4, human BR3 displayed on phage, R30 alanine-scan mutant (human, UniProt Q96RJ3 1-61, limits assumed); test: as above
# T4 construct: One position of the shotgun alanine scan of BR3 on phage
# Excerpt: as §2, §3, §4
# [8] = target: T5, human BR3 displayed on phage, L28 alanine-scan mutant (human, UniProt Q96RJ3 1-61, limits assumed); test: as above
# T5 construct: One position of the shotgun alanine scan of BR3 on phage
# Excerpt: as §2, §3, §4
# [9] = target: T6, human BR3 displayed on phage, E23 alanine-scan mutant (human, UniProt Q96RJ3 1-61, limits assumed); test: as above
# T6 construct: One position of the shotgun alanine scan of BR3 on phage
# Excerpt: as §2, §3, §4
# [10] = target: T7, human BR3 displayed on phage, H31 alanine-scan mutant (human, UniProt Q96RJ3 1-61, limits assumed); test: as above
# T7 construct: One position of the shotgun alanine scan of BR3 on phage
# Excerpt: as §2, §3, §4
# [11] = target: T8, human BR3 displayed on phage, D26 alanine-scan mutant (human, UniProt Q96RJ3 1-61, limits assumed); test: as above
# T8 construct: One position of the shotgun alanine scan of BR3 on phage
# Excerpt: as §2, §3, §4
# [12] = target: T9, human BR3 displayed on phage, R42 alanine-scan mutant (human, UniProt Q96RJ3 1-61, limits assumed); test: as above
# T9 construct: One position of the shotgun alanine scan of BR3 on phage
# Excerpt: as §2, §3, §4
# [13] = target: T10, human BR3 displayed on phage, P18 alanine-scan mutant (human, UniProt Q96RJ3 1-61, limits assumed); test: as above
# T10 construct: One position of the shotgun alanine scan of BR3 on phage
# Excerpt: as §2, §3, §4
# [14] = target: T11, human BR3 displayed on phage, L37 alanine-scan mutant (human, UniProt Q96RJ3 1-61, limits assumed); test: as above
# T11 construct: One position of the shotgun alanine scan of BR3 on phage
# Excerpt: as §2, §3, §4
# [15] = target: T12, human BR3 displayed on phage, V29 alanine-scan mutant (human, UniProt Q96RJ3 1-61, limits assumed); test: as above
# T12 construct: One position of the shotgun alanine scan of BR3 on phage
# Excerpt: as §2, §3, §4
# [16] = target: T13, human BR3 displayed on phage, V20 alanine-scan mutant (human, UniProt Q96RJ3 1-61, limits assumed); test: as above
# T13 construct: One position of the shotgun alanine scan of BR3 on phage
# Excerpt: as §2, §3, §4
# [17] = target: T14, human BR3 displayed on phage, F25 alanine-scan mutant (human, UniProt Q96RJ3 1-61, limits assumed); test: as above
# T14 construct: One position of the shotgun alanine scan of BR3 on phage
# Excerpt: as §2, §3, §4
# [18] = target: T15, human BR3 displayed on phage, L27 alanine-scan mutant (human, UniProt Q96RJ3 1-61, limits assumed); test: as above
# T15 construct: One position of the shotgun alanine scan of BR3 on phage
# Excerpt: as §2, §3, §4
# [19] = target: T16, human BR3 displayed on phage, R39 alanine-scan mutant (human, UniProt Q96RJ3 1-61, limits assumed); test: as above
# T16 construct: One position of the shotgun alanine scan of BR3 on phage
# Excerpt: as §2, §3, §4
# [20] = target: T17, human BR3 displayed on phage, P21 alanine-scan mutant (human, UniProt Q96RJ3 1-61, limits assumed); test: as above
# T17 construct: One position of the shotgun alanine scan of BR3 on phage
# Excerpt: as §2, §3, §4
# [21] = target: T18, human BR3 displayed on phage, T40 alanine-scan mutant (human, UniProt Q96RJ3 1-61, limits assumed); test: as above
# T18 construct: One position of the shotgun alanine scan of BR3 on phage
# Excerpt: as §2, §3, §4
# [22] = target: T19, human BR3 displayed on phage, T17 alanine-scan mutant (human, UniProt Q96RJ3 1-61, limits assumed); test: as above
# T19 construct: One position of the shotgun alanine scan of BR3 on phage; the F value gives the effect of this change against wild type; See m1 for the parent
# Excerpt: as §2, §3, §4
# [23] = target: T20, human BR3 displayed on phage, P41 alanine-scan mutant (human, UniProt Q96RJ3 1-61, limits assumed); test: as above
# T20 construct: One position of the shotgun alanine scan of BR3 on phage
# Excerpt: as §2, §3, §4
# [24] = target: T1, human BR3 expressed on cells; test: BJAB cells, direct binding
# Description: (§5) Direct and competitive binding assays were performed as follows. For the direct binding assay, IgG antibody samples were serially diluted in cold assay buffer to concentrations ranging between 300-0.02 nM. Samples (100 μl) were added to the pelleted cells, and the plates were incubated for 45 min on ice. An additional 100 μl assay buffer was then added to each well, and the plates were centrifuged at 1200 rpm for 5 min at 4° C. After carefully aspirating the supernatant, the cells were washed two additional times with 200 μl assay buffer. An anti-mouse IgG Fc-HRP or goat anti-human IgG Fc-HRP, as appropriate, was diluted 1/10,000 in cold assay buffer was added (100 μl/well, Jackson ImmunoResearch, West Grove, Pa.), and the plates were incubated on ice for 45 min. Following two washes with 200 μl cold assay buffer, tetramethyl benzidine (TMB, Kirkegaard & Perry Laboratories, Gaithersburg, Md.) was added, and color was allowed to develop for 10 min. One hundred microliters 1 M H₃PO₄ was added to stop the reaction. The plates were then read on a microplate reader at 450 nm with a 620 nm reference. In the direct binding assay, the indicated concentrations of mAbs were added to BJAB cells and bound mAb was detected.
# [25] = target: T2, variant human BR3-Fc fusion; test: competition ELISA on vhBR3-Fc against biotinylated 2.1
# [26] = target: T21, human BR3 extracellular domain (human, UniProt Q96RJ3 1-61); test: SPR, BR3 ECD on chip;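 note: Anti-BR3 antibodies passed over the chip at high flow in PBS with 0.05% polysorbate 20, on and off rates fitted together globally to a 1:1 binding model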
# T21 construct: biotinylated where used as tracer; also called hBR3-ECD; BR3-ECD
# Description: After coupling, unoccupied sites on the chip were blocked by injecting 20 μl of 1M ethanolamine, pH 8.5. The running buffer was PBS containing 0.05% polysorbate 20. […] The binding surface was regenerated by injecting 20-30 μl of 10 mM glycine.HCl (pH 1.5). […] Data were analyzed using a 1:1 binding model using global fitting. The association and dissociation rate constants were fitted simultaneously (BIAevaluation software).
# A high flow rate was used in order to minimize mass transport effects.
# [27] = target: T21, human BR3 extracellular domain; test: SPR, IgG on chip, BR3 ECD in solution
# [28] = target: T1, human BR3 expressed on cells; test: BJAB cell direct binding assay, anti-mouse IgG Fc-HRP
# Description: For binding assays, cells were washed with cold assay buffer (phosphate buffered saline (PBS), pH 7.4) containing 1% fetal bovine serum (FBS)). […] The plates containing the cells were centrifuged at 1200 rpm for 5 min at 4° C., and the supernatant was carefully aspirated away from the cell pellets. […] For these experiments, full length antibodies (IgG) were used.
# as §5
# [29] = target: T22, human BR3 displayed on phage, V33 alanine-scan mutant (human, UniProt Q96RJ3 1-61, limits assumed); test: shotgun alanine scan of phage-displayed BR3; F against wild type;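 note: Phage-displayed BR3 shotgun alanine libraries, two selection rounds for anti-BR3 antibody binding, normalized to a display selection, F above 1 marks a harmful substitution, below 1 a beneficial one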
# T22 construct: One position of the shotgun alanine scan of BR3 on phage
# Excerpt: as §2, §3, §4
# [30] = target: T23, human BR3 displayed on phage, G36 alanine-scan mutant (human, UniProt Q96RJ3 1-61, limits assumed); test: as above
# T23 construct: One position of the shotgun alanine scan of BR3 on phage
# Excerpt: as §2, §3, §4
# [31] = target: T1, human BR3 expressed on cells; test: BJAB cell competitive binding assay against biotin-BAFF
# Description: BJAB cells, a human Burkitt lymphoma cell line, were cultured in RPMI media supplemented with 10% FBS, penicillin (100 U/ml, Gibco-Invitrogen, Carlsbad, Calif.), streptomycin (100 μg/ml, Gibco), and L-glutamine (10 mM). […] For binding assays, cells were washed with cold assay buffer (phosphate buffered saline (PBS), pH 7.4) containing 1% fetal bovine serum (FBS)). […] The plates containing the cells were centrifuged at 1200 rpm for 5 min at 4° C., and the supernatant was carefully aspirated away from the cell pellets. […] For these experiments, full length antibodies (IgG) were used.
# as §1
# [32] = target: T2, variant human BR3-Fc fusion; test: competition ELISA on vhBR3-Fc against biotinylated 9.1
# [33] = target: T24, human BAFF (residues 82-285) (human, UniProt Q9Y275 82-285); test: BJAB cell competitive binding assay: soluble BR3-Fc keeps biotin-BAFF from BR3 on the cells
# T24 construct: range 82-285; also called biotin-BAFF; biotinylated BAFF
# T24 sequence (Q9Y275 82-285 limits assumed): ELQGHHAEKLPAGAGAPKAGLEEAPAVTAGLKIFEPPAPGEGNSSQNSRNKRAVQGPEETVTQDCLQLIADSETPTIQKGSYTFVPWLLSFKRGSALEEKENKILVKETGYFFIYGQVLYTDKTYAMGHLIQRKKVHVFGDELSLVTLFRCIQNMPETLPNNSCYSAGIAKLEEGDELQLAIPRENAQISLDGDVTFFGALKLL
IC50 [1] [pM],Kd [2],IC50 (read off the curve) [3] [µg/mL],F value [4],F value [6],F value [7],F value [8],F value [9],F value [10],F value [11],F value [12],F value [13],F value [14],F value [15],F value [16],F value [17],F value [18],F value [19],F value [20],EC50 [24] [pM],Binder,other results
250,80 pM and 70 pM,~0.1,62,0.9,10,0.1,9.6,0.6,6.1,1.8,0.5,0.1,0.5,3,49,0.8,0.5,1.9,160,"murine monoclonal antibody 2.1 (antibody, V domains shown, mouse hybridoma IgG; also called 2.1 IgG; mu2.1) VH: EVQLQESGPSLVKPSQTLSLTCSVTGDSITRGYWNWIRKFPGNKLEFMGYINYSGTTYYNPSLKSRISITRDTSKNQYYLQLNSVTTEDTATYYCATPHTYGAMDYWGQGTTLTVSA VL: DIVLTQSPVSLAVSLGQRATISCRASESVDDYGISFMHWYQQKPGQPPKLLIYRASDLESGIPARFSGSGSGTDFTLTINPVETDDVAIYYCQQTSKDPWTFGGGT",koff [2]: 3.4e-05 s⁻¹ and 3.3e-05 s⁻¹; kon [2]: 440000 M⁻¹ s⁻¹ and 470000 M⁻¹ s⁻¹; F value [5]: 3.2; F value [21]: 0.2; F value [22]: 0.6; F value [23]: 0.7; IC50 (read off the curve) [25]: ~0.6 µg/mL; Kd [26]: 50 pM; koff [26]: 5.2e-05 s⁻¹; kon [26]: 960000 M⁻¹ s⁻¹; Kd [27]: 150 pM; koff [27]: 1.7e-05 s⁻¹; kon [27]: 110000 M⁻¹ s⁻¹
380,–,~0.2,32,0.9,1.7,0.4,6.9,2.8,8.5,0.9,0.5,0.7,1,1.1,38,1.1,3.1,40,190,"murine monoclonal antibody 11G9 (antibody, V domains shown, mouse hybridoma IgG; also called mu11G9) VH: DVQLQESGPSLVKPSQTLSLTCSVTGDSITSGYWNWIRKFPGNKLEYMGYISYSGSTYYNPSLKSRISITRDTSKNQFYLQLLSVTTEDTATYYCAGLDGLYWYFDVWGAGTLVTVSS VL: DIVMTQTPLSLPVSLGDQASISCRSSQSLVHSNGNTYLHWYLQKPGQSPKLLIYKVSNRFSGVPDRFSGSGSGTDFTLKISRVEAEDLGVYFCSQSTHVPPFTFGSGT",EC50 [28]: 170 pM; F value [29]: 24; F value [30]: 1.8; F value [21]: 0.5; F value [22]: 0.5; F value [23]: 1.7; IC50 [31]: 290 pM
1300,610 pM,~0.1,–,–,–,–,–,–,–,–,–,–,–,–,–,–,–,–,540,"murine monoclonal antibody 9.1 (antibody, V domains shown, mouse hybridoma IgG; also called 9.1 IgG; mu9.1) VH: EVKLVESGGGLVQPGGSLRLSCAISGFTVTAYYMSWVRQPPGKALEWLGFIRDKANGYTTEYNPSVKGRFTISRDNSQSIFYLQMNTLRAEDSATYYCAQVRRALDYWGQGTTVTVSA VL: DIVMSQSPSSLAVSVGEKVTMSCKSSQSLLYSSNQNNYLAWYQQKPGQSPKLLIYWASTRESGVPDRFTGSGSGTDFTLTISSVKAEDLAVYYCQQYYTYPYTFGGGT",EC50 [28]: 460 pM; IC50 (read off the curve) [32]: ~0.6 µg/mL; IC50 [31]: 860 pM
–,–,–,–,–,–,–,–,–,–,–,–,–,–,–,–,–,–,–,–,"mouse BR3-Fc (Fc fusion, (BR3 ECD fused to a murine Fc); also called mBR3-Fc; murine BR3-Fc) STGARRLRVRSQRSRDSSVPTQCNQTECFDPLVRNCVSCELFHTPDTGHTSSLEPGTALQPQEGQVTGDKKIVPRDCGCKPCICTVPEVSSVFIFPPKPKDVLTITLTPKVTCVVVDISKDDPEVQFSWFVDDVEVHTAQTQPREEQFNSTFRSVSELPIMHQDWLNGKEFKCRVNSAAFPAPIEKTISKTKGRPKAPQVYTIPPPKEQMAKDKVSLTCMITDFFPEDITVEWQWNGQPAENYKNTQPIMNTNGSYFVYSKLNVQKSNWEAGNTFTCSVLHEGLHNHHTEKSLSHSPGK",binding result [28]: no binding (tested: about 35 ng/ml as the axis is labelled); IC50 [33]: 12700 pM
